Reference: patent US20250197490A1 (HBM ALPHA THERAPEUTICS, published 2025)
Numbering of substitutions follows the chain as printed. Values joined by “and” are separate entries in the source; they are usually repeats but may differ in a detail not shown here. Equal entries are not always repeated. Where two headings read alike, the source gives them in different places.

T1: CRH (Central Region, NT Biotin) (N-terminal Biotin-K; C-terminal NH2)
T1 construct: also called Central CRH
T1 peptide: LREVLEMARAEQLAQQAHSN

T2: biotinylated CRH (human and mouse, UniProt P01143 145-185 (rat entry), not fully specified; biotin; which end is not stated for the result (NT-biotin and CT-biotin forms were used))
T2 construct: also called biotin-CRH; CRH (NT biotin)
T2 peptide: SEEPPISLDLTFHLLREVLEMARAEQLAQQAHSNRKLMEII

T3: N-Terminal CRH peptide (N-terminal region plus central region, CT biotin) (human and mouse, C-terminal K-Biotin)
T3 construct: also called N-Ter-CRH
T3 peptide: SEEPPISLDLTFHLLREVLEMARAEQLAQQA

T4: corticotropin-releasing hormone (CRH) peptide (human and mouse, UniProt P01143 145-185 (rat entry), not fully specified)
T4 peptide: T2 peptide

T5: human UCN1 peptide, biotinylated (human, UniProt P55089 83-122, biotin at N- or C-terminus)
T5 construct: also called hUCN1 (NT Biotin); hUCN1 (CT Biotin)
T5 peptide (looked up): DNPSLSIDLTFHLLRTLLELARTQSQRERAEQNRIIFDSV

T6: human UCN3 peptide, biotinylated (human, UniProt Q969E3 120-157, biotin at N- or C-terminus)
T6 construct: also called hUCN3 (NT Biotin); hUCN3 (CT Biotin)
T6 peptide (looked up): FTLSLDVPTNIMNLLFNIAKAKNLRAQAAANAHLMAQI

T7: human UCN2 peptide, biotinylated (human, UniProt Q96RP3 72-109, limits assumed, biotin at N- or C-terminus)
T7 construct: also called hUCN2 (NT Biotin); hUCN2 (CT Biotin)
T7 peptide (looked up): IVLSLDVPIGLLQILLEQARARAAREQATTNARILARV

T8: CRH (Central Region, CT Biotin) (C-terminal K-Biotin)
T8 construct: also called Central CRH
T8 peptide: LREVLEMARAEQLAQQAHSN

T9: CRH (C-Terminal Region, NT Biotin) (N-terminal Biotin-K; C-terminal NH2)
T9 construct: central region plus C-terminal region of CRH; also called C-Terminal CRH; C-Ter-CRH
T9 peptide: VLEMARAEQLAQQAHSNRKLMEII

B1: PR302309-8 (antibody, human IgG1, kappa, V domains shown)
VH: QIQLVQSGSELKKPGASVKVSCKASGYTFTNYGMNWVRQAPGQGLEWMGWINTYTGEPIYTDDFKGRFVFSLDTSVSTAYLQISSLKAEDTAVYYCSRSTMITTGGVFAYWGQGTLVTVSS
VL: DVVMTQSPLSLPVTLGQPASISCRSSQTIVHSDGNTYLEWYQQRPGQSPRLLIYKVSNRFSGVPDRFSGSGSGTDFTLKISRVEAEDLGVYYCFQGSHVPWTFGGGTKVEIKR
B2: PR302341-67 (antibody, human IgG1, kappa, V domains shown)
VH: QVQLVQSGAEVKKPGASVKVSCKASGYTFTDYFMKWVRQAPGQGLEWMGVINPNNGDIFYNQKFKGRVTMTVDKSTSTAYMELSSLRSEDTAVYYCARGTDRALFAYWGQGTLVTVSS
VL: B1 VL with S7T, L11S, S26G, T28S, G34A, S48P, S72A, V99I
B3: PR006746 (antibody, human IgG1, kappa, V domains shown)
VH: EVQLVESGGGLVQPGGSLRLSCAASGFTFSDNWMSWVRQAPGKGLEWVANIKQDSSENYYVDSVKGRFTISRDNAKNSLYLQMNSLRAEDTAVYYCSRGLALWGWGQGTLVTVSS
VL: DIVMTHSPLSLPVTPGDPASISCRSSQSLLHSTGYNYLDWYLQKPGQSPQLLIYLGSNRASGVPDRFSGSGSGTDFTLKFIRVEAEDVGVYYCMQALQTPYTFGQGTKLEIKR
B4: PR302334 (antibody, human IgG1, kappa, V domains shown)
VH: EVKLVESGGGLVKPGGSLKLSCAASGFTFSTYAMSWVRQTPEKRLEWVASIRSGGTTYYPDSVKGRFTISRDNARNILYLQMSSLRSEDTAIYYCTRGIDWGQGTLVTVSA
VL: NIVMTQTPKFLLVSAGDRITITCKASQSVNNDVAWYQQKPGQSPKLLIYYASNRYTGVPDRFTGSGYGTDFTFTISTVQAEDLAVYFCQQDYSSWTFGGGTNLEIKR
B5: PR006143 (antibody, human IgG1, kappa, V domains shown)
VH: EVQLVESGGVLVQPGGSLRLSCAASGFTFSSYWMTWVRQAPGKGLEWVANIKQEGSEKYYVDSVKGRFTISRDNAKNSLFLQMNSLRAEDTAVYYCARTLIFDYWGQGTLVTVSS
VL: DIVMTQSPLSLPVTPGEPASISCRSSQSLLHSTGYHSLEWYLQKPGQSPQLLIYLGSNRASGVPDRFSGSGSGTDFTLKISRVEAEDVGIYYCMQTLQTPITFGQGTRLEIKR
B6: PR006145 (antibody, human IgG1, kappa, V domains shown)
VH: B5 VH
VL: B5 VL with H36S

Assays:
[1] = molecular target: T1, CRH (Central Region, NT Biotin); assay: ELISA, CRH central region peptide (NT biotin)
Experimental: (§1) Streptavidin (Thermo, Cat: 21125) was diluted in PBS to a concentration of 2 μg/ml. 100 μl of diluted streptavidin was added per well to ELISA microplates, and the plates were incubated overnight at 4° C. […] Subsequently, plates were washed and incubated with HRP-conjugated goat anti-human IgG (H+L) antibody (Jackson, Cat: 109-035-088) at 37° C. for 1 hour. 100 μL of 3,3′,5,5′-tetramethylbenzidine (TMB) substrate (Biopanda, Cat: TMB-S-003) was added, and the plates were incubated at room temperature for 15 minutes. 100 μL of ELISA stopping solution (Solarbio, Cat #: C1058) was added to terminate the reaction, and the optical density at 450 nm (OD450 nm) was determined by an ELISA plate reader (Molecular Devices, Spectra max 384 plus).

biotinylated CRH [2] = molecular target: T2, biotinylated CRH; assay: Octet in-tandem competition on captured CRH; row = 1st mAb; competitor (2nd mAb) PR302309-8
Experimental: (§2) SA sensors (Fortebio, Cat #18-5019) were hydrated in running buffer for 10 mins.

biotinylated CRH [3] = molecular target: T2, biotinylated CRH; assay: Octet in-tandem competition on captured CRH; row = 1st mAb; competitor (2nd mAb) PR005660
Experimental: as §2

[4] = molecular target: T3, N-Terminal CRH peptide (N-terminal …); assay: ELISA, N-Ter-CRH (CT-biotin) on streptavidin
Experimental: as §1

biotinylated CRH [5] = molecular target: T2, biotinylated CRH; assay: ELISA, CRH (NT biotin)
Experimental: as §1

biotinylated CRH [6] = molecular target: T2, biotinylated CRH; assay: Octet in-tandem competition on captured CRH; row = 1st mAb; competitor (2nd mAb) PR301777
Experimental: as §2

[7] = molecular target: T4, corticotropin-releasing hormone (CRH) …; assay: cell-based or functional assay
biotinylated CRH [8] = molecular target: T2, biotinylated CRH; assay: Octet in-tandem competition on captured CRH; row = 1st mAb; competitor (2nd mAb) PR302334
Experimental: as §2

biotinylated CRH [9] = molecular target: T2, biotinylated CRH; assay: Octet in-tandem competition on captured CRH; row = 1st mAb; competitor (2nd mAb) PR006669
Experimental: as §2

[10] = molecular target: T5, human UCN1 peptide, biotinylated; assay: ELISA, hUCN1 (NT biotin)
Experimental: as §1

[11] = molecular target: T6, human UCN3 peptide, biotinylated; assay: ELISA, hUCN3 (NT biotin) and (CT biotin)
Experimental: (§3) Streptavidin (Thermo, Cat: 21125) was diluted in PBS with a concentration of 2 μg/mL. 100 μL of diluted streptavidin was added per well to ELISA microplates, and the plates were incubated overnight at 4° C. Plates were blocked with ELISA blocking solution (containing 2% w/v BSA, 0.05% (v/v) Tween-20, pH 7.4 PBS buffer) at 37° C. for 1 hour, and then incubated with either 1 μg/mL hUCN1 (NT Biotin), hUCN1 (CT Biotin), hUCN2 (NT Biotin), hUCN2 (CT Biotin), hUCN3 (NT Biotin), or hUCN3 (CT Biotin) for 1 hour at 37° C. […] Plates were subsequently washed and incubated with HRP-conjugated goat anti-human IgG (H+L) antibody (Jackson, Cat: 109-035-088) at 37° C. for 1 hour. 100 μl of TMB Substrate (Biopanda, Cat: TMB-S-003) was added, and the plates were incubated at room temperature for 15 minutes. 100 μL of ELISA stopping solution (Solarbio, Cat #: C1058) was then added to terminate the reaction, and the OD450 nm was determined by an ELISA plate reader (Molecular Devices, Spectra max 384 plus).

biotinylated CRH [12] = molecular target: T2, biotinylated CRH; assay: Octet in-tandem competition on captured CRH; row = 1st mAb; competitor (2nd mAb) PR302341-34
Experimental: as §2

[13] = molecular target: T7, human UCN2 peptide, biotinylated; assay: ELISA, hUCN2 (NT biotin) and (CT biotin)
Experimental: as §3

[14] = molecular target: T8, CRH (Central Region, CT Biotin); assay: ELISA, CRH central region peptide (CT biotin)
Experimental: as §1

[15] = molecular target: T9, CRH (C-Terminal Region, NT Biotin); assay: ELISA, CRH C-terminal region peptide (NT biotin)
Experimental: as §1

biotinylated CRH [16] = molecular target: T2, biotinylated CRH; assay: ELISA, CRH (CT biotin)
Experimental: as §1

biotinylated CRH [17] = molecular target: T2, biotinylated CRH; assay: Octet in-tandem competition on captured CRH; row = 1st mAb; competitor (2nd mAb) PR303394
Experimental: as §2

[18] = molecular target: T4, corticotropin-releasing hormone (CRH) …; assay: cell-based or functional assay
biotinylated CRH [19] = molecular target: T2, biotinylated CRH; assay: CRH ELISA, compared with PR006669
Experimental: as §1

[20] = molecular target: T4, corticotropin-releasing hormone (CRH) …; assay: cell-based or functional assay
biotinylated CRH [21] = molecular target: T2, biotinylated CRH; assay: Octet BLI, biotinylated CRH on SA sensors

| Binder | % Inhibition (biotinylated CRH [2]) | % Inhibition (biotinylated CRH [3]) | % Inhibition (biotinylated CRH [6]) | % Inhibition (biotinylated CRH [8]) | % Inhibition (biotinylated CRH [9]) | % Inhibition (biotinylated CRH [12]) | % Inhibition (biotinylated CRH [17]) | binding result (biotinylated CRH [21]) | also measured |
| --- | --- | --- | --- | --- | --- | --- | --- | --- | --- |
| B1 | 87% | 76% | 80% | 65% | 76% | 74% | 77% | – | binding result [1]: no binding (tested: 100 nM); EC50 [4]: 0.025 nM; EC50 (read off the curve) (biotinylated CRH [5]): ~0.03 nM; hCRHR1-Luc 0.5 nM CRH IC50 [7]: 1.7 nM; EC50 (read off the curve) [10]: ~0.1 nM; binding result [11]: no binding (tested: 100 nM); binding result [13]: no binding (tested: 100 nM); binding result [14]: no binding (tested: 100 nM); binding result [15]: no binding (tested: 100 nM); EC50 (read off the curve) (biotinylated CRH [16]): ~0.03 nM |
| B2 | – | – | – | – | – | – | – | – | IC50 (read off the curve), CRH-induced hCRHR1 luciferase reporter [18]: ~0.2 nM |
| B3 | – | – | – | – | – | – | – | – | binding result (biotinylated CRH [19]): binds |
| B4 | 91% | 92% | 90% | 95% | 93% | 88% | 89% | – | hCRHR1-Luc 0.5 nM CRH IC50 [20]: 0.26 nM and 0.644 nM |
| B5 | – | – | – | – | – | – | – | binds | – |
| B6 | – | – | – | – | – | – | – | binds | – |
